T1: Human ADAM9 protein (ACROBiosystems, Cat. No. AD9-H52H7) (human, UniProt Q13443 29-697)
T1 construct: Bought protein; also called Human ADAM-His protein; human ADAM9 antigen; not shown: His tag
T1 sequence (looked up): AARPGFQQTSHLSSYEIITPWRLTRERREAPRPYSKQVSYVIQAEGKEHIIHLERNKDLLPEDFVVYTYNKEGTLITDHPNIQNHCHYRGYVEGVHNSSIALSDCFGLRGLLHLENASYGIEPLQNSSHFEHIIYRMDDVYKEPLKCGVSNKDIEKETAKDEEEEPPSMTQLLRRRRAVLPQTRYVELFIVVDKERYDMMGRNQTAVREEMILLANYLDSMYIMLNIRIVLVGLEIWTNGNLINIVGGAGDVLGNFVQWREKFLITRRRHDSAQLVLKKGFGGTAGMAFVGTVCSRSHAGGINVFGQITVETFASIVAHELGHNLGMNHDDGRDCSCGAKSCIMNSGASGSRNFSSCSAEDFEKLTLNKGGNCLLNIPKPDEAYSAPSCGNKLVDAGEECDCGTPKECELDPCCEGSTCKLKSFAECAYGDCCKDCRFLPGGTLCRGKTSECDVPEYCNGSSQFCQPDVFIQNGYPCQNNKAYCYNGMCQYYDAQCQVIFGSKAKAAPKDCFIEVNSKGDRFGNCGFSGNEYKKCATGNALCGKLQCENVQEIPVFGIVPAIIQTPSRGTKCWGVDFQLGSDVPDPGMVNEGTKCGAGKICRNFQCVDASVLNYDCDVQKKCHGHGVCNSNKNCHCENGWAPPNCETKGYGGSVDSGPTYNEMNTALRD


Legend:
[1] = molecular target: T1, Human ADAM9 protein (ACROBiosystems, …); experiment: SPR (Biacore 8K), antibody captured by anti-human Fc on CM5, ADAM9 as analyte
Description: Chip preparation: The mouse anti-human IgG (Fc) antibody (Cat. No. 29234600, Cytiva) was diluted to 25 μg/mL in immobilization buffer (10 mM sodium acetate, pH 5.0), specifically by adding 950 μL of the immobilization buffer to 50 μL of the mouse anti-human IgG (Fc) antibody. The dilution was used for immobilization in eight channels. First, the surface of the CM5 chip was activated with 400 mM EDC and 100 mM NHS at a flow rate of 10 μL/min for 420 seconds. Then, 25 μg/mL of the mouse anti-human IgG (Fc) antibody was injected into the test channels at a flow rate of 10 μL/min for approximately 360 seconds, with the level of immobilization at approximately 7000 to 14000 RU. Finally, the chip was blocked with 1 M ethanolamine at a flow rate of 10 μL/min for 420 seconds. The reference channels underwent the same procedures as the test channels.
Ligand capture: Antibodies Ab10, Ab15, Ab16, and hMAB-A (2I.2) were diluted to 4 μg/mL in running buffer (containing 10 mM N-(2-hydroxyethyl)piperazine-N-2-ethanesulfonic acid (HEPES), 150 mM sodium chloride (NaCl), 3 mM ethylenediaminetetraacetic acid (EDTA), 0.005% Tween-20, pH adjusted to 7.4) and injected into the test channels for human IgG (Fc) capture at a flow rate of 10 μL/min at approximately 200 RU. No ligand capture was performed in the reference channels.
Analyte multi-cycle analysis: Human and cynomolgus ADAM9 proteins (human ADAM9 protein purchased from ACRO, Cat. No. AD9-H52H7; monkey ADAM9 protein purchased from ACRO, Cat. No. AD9-C52H7) were diluted 2-fold in running buffer (Table 10). The diluted human or cynomolgus ADAM9 protein was sequentially injected into the test channels and the reference channels at a flow rate of 30 μL/min, with corresponding association and dissociation times. Both the association and dissociation steps were performed in the running buffer. After each concentration analysis, the chip was regenerated with 3 M magnesium chloride at a flow rate of 20 μL/min for 30 seconds to wash away the ligand and any undissociated analyte. For the next concentration analysis, the test channels required re-capture of the same amount of ligand.

[2] = molecular target: T1, Human ADAM9 protein (ACROBiosystems, …); experiment: indirect ELISA, human ADAM9-His coated at 1 ug/mL
Description: The plate was washed three times with PBST (PBS (pH 7.4) containing 0.05% Tween-20), followed by addition of 200 μL/well of blocking buffer containing 1% bovine serum albumin (BSA) diluted in PBST, and incubated at 37° C. for 1 hour for blocking. After blocking, the blocking buffer was discarded, and the plate was washed once with PBST buffer. The test antibody was diluted in PBST containing 1% BSA with a 3-fold serial dilution starting at 15 μg/mL across 11 doses, and added to the ELISA plate at 100 μL/well, followed by incubation at 37° C. for 1 hour. After incubation, the plate was washed three times with PBST, followed by addition of 100 μL/well of HRP-labeled goat anti-human secondary antibody (Rockland, Cat. No. 609-103-123) diluted in PBST containing 1% BSA, and incubated at room temperature for 45 minutes. The plate was washed six times with PBST, followed by addition of 100 μL/well of TMB chromogenic substrate (Suzhou Yacoo Chemical Reagent Co., Ltd., Cat. No. S0025), and incubated at room temperature in the dark for 10 minutes. The reaction was terminated by adding 50 μL/well of 1 M HCl, and the absorbance was measured at 450 nm using a microplate reader (Thermo, Ascent) for data analysis.

Row | Kd [1] [nM] | koff [1] [s⁻¹] | kon [1] [M⁻¹ s⁻¹] | EC50 [2] [nM] | Top (OD450) [2] [OD450] | Binder
1 | 4.03 | 0.000697 | 173000 | 0.049 | 3.28 | Ab15 (antibody, human IgG1, kappa, V domains shown, Humanized anti-ADAM9 IgG1/kappa; also called Ab15-V (variable regions)) VH: QVQLQQPGAELKKPGASVKVSCKASGFTFPLYWMNWVRQRPGRGLEWIGRIIPIFGHTKYNEKFKDRATMTADESSSTAYMELSSLTSEDSAVYYCARGGYYYYPREGFLDYWGQGTSVTVSS VL: DIVMTQSPDSLSVSPGERATINCRSSQSVDYSGDSYMNWYQQKPGQSPRLLIYAASDRESGVPDRFSGSGSGTDFTLKISNVEEEDAATYYCQQSREDPFTFGQGTRVEIKR
2 | 5.01 | 0.000816 | 163000 | 0.042 | 3.36 | Ab16 (antibody, human IgG1, kappa, V domains shown, Humanized anti-ADAM9 IgG1/kappa; also called Ab16-V (variable regions)) VH: QVQLQQPGTEVVKPGASVKLSCKASGFTFPLYWMHWVRQRPGRGLEWIGRIIPIFGHTKYNEKFKNKATLTADESSSTAYMELRSLTSDDSAVYYCARGGYYYYPREGFLDYWGQGTSVTVSS VL: DIVMTQSPASLSVSPGERASISCRSSQSVDYSGDSYMNWYQQKPGQSPRLLIYAASDRESGVPDRFSGSGSGTDFTLKISRVEEEDAGTYYCQQSREDPFTFGQGTKVDIKR

From patent US20260242515A1 (DUALITY BIOLOGICS SHANGHAI, published 2026)
